Assay results: US20240316011A1, “ANTI-FIBROSIS PHARMACEUTICAL COMPOSITION AND APPLICATION THEREOF” (West China Second University Hospital, priority 2020, published 2024)

What was measured:
NRP1 = assay: HDAC and DNMT inhibitor treatment of old mice: NRP1 protein in isolated ECs (immunoblot); type: in vivo, mouse; settings: old mice after PNX; 10 mg/kg VPA, 0.5 mg/kg AZA
Method: Injection of growth factor and treatment of HDAC and DNMT inhibitors. Three months old (young) mice were subjected to PNX, PH or kidney I/R and injected with 20 μg/kg […] or equal molar amounts of PDGF-BB, HGF, VEGF165, or TGFβ1 every three days. 3-mon Nrp1^+/+, Nrp1^iΔEC/iΔEC, or […] mice were also treated with […]. To test the regulation of […] and NRP1, old mice were treated with 10 mg/kg HDAC inhibitor VPA, 0.5 mg/kg DNMT1 inhibitor azacitidine (AZA), or combinatorial treatment of VPA and AZA (VPA+AZA). Expression of EPCR and NRP1 proteins in isolated lung, liver, and kidney ECs were tested by immunoblot, and […] amounts in homogenized organs was tested by ELISA.

[1] = system: Lung and liver fibroblast cells; assay: TIMP1 treatment of lung fibroblast and liver stellate cell (immunoblot); type: cell-based, mouse
Method: TIMP1 treatment of lung fibroblast and liver stellate cell. Lung and liver fibroblast cells were from ScienceCell Research Laboratories and cultured as described previously (Reference 8). Lung and liver fibroblast cells were treated with 20 ng/ml TIMP1, 10 ng/ml TGFβ1, or 20 ng/ml TIMP1 and 10 ng/ml TGFβ1. To identify the role of β1 integrin in TIMP1-mediated fibroblast activation, p1 integrin was silenced in fibroblast cells by shRNA. After treatment, lung and liver fibroblast cells were retrieved for analysis of Smad2 phosphorylation and SMA protein expression by immunoblot. Smad2 phosphorylation and SMA protein expression were quantified by densitometry of immunoblot.

TIMP1 = settings: old mice after PNX, PH, or kidney I/R
Source text: Macrophages/monocytes were isolated from indicated mouse tissues via antibody-coated beads isolation after PNX, PH, or Kid I/R. Expression of genes was examined by quantitative PCR.

mouse liver fibrosis = assay: CCl4 liver injury / fibrosis model; type: in vivo; settings: Nrp1 iΔEC/iΔEC mice after chronic injury
Method: Animal Care and Mouse lines used.
Mouse liver regeneration and repair models. Mouse liver regeneration was induced by PH.
Tissue fibrosis determination. Lung, liver and kidney fibrotic responses were determined at the indicated time after injury. Tissues were homogenized in tissue lysis buffer. Immunoblot of Collagen I was performed with the obtained tissue lysates. Protein level of Collagen I was compared between different groups. Sirius red and hematoxylin stainings were performed on paraffin-embedded tissue sections to determine the tissue morphology and Collagen deposition and distribution (Reference 8). Sirius red-positive fibrotic parenchyma was determined from five random fields in each section and quantified. Hydroxyproline amount was quantified in the liver and lung to determine the extent of fibrosis.

kidney fibrosis = assay: Folic acid kidney fibrosis model; type: in vivo, mouse; settings: Nrp1 iΔEC/iΔEC mice after chronic injury
Method: Animal Care and Mouse lines used. […] This mouse line was crossed with floxed Nrp1 […] mice to generate […] and control mice. […] Mouse kidney regeneration and repair models. Mouse kidney I/R model was adopted from described (Reference 72). After mice were anesthetized, ischemia was induced by the retroperitoneal approach on both kidneys for 30 min. Sham operation was carried out with exposure of kidneys without inducing ischemia. To generate kidney fibrosis, mice were given a single i.p. injection of folic acid at the dose of 250 mg/kg, as previously described (Reference 74). […] At indicated time, serum creatinine concentration was measured by the picric acid method, and tissue morphology and fibrosis were analyzed by Sirius red and hematoxylin co-stainings. Tissue fibrosis determination. Lung, liver and kidney fibrotic responses were determined at the indicated time after injury. Tissues were homogenized in tissue lysis buffer. Immunoblot of Collagen I was performed with the obtained tissue lysates. Protein level of Collagen I was compared between different groups. […] Sirius red-positive fibrotic parenchyma was determined from five random fields in each section and quantified. Hydroxyproline amount was quantified in the liver and lung to determine the extent of fibrosis.

EPCR [2] = assay: Growth factor injection after PH: EPCR in liver ECs; type: in vivo, mouse; settings: liver lacking endothelial Nrp1 or Hif2a
Method: Mouse lung regeneration and repair models. To test mouse lung alveolar regeneration and repair, models of left lung PNX (Reference 19) and lung injury (Reference 7) were adapted. Mice were anesthetized with a cocktail of ketamine (100 mg/kg) and xylazine (10 mg/kg). PNX was carried out when left lung lobe was resected with a suture tied around the hilum. PCECs were purified from 20 months (designated as old) and 3 months old (designated as young) mice after PNX, and total RNA was isolated and subjected to transcriptome analysis as described. Intratracheal injection of 2 U/kg bleomycin was employed to induce lung injury. To block EPCR signaling, mice were intraperitoneally injected with EPCR neutralizing antibody 1560 at 1.5 mg/kg (Reference 46) after PNX and Bleo injection. Young Nrp1^iΔEC/iΔEC Hif2a^iΔEC/iΔEC, and control mice were also administered with 20 μg/kg mouse P1GF or same molar amounts of HGF and PDGF-BB (Peprotech) after PNX and PH. […] At the described time points, pulmonary function and oxygen tension in arterial blood of treated mice were measured as previously described (Reference 7). To measure cell proliferation, 100 mg/kg 5-ethynyl-2′-deoxyuridine (EDU) was i.p. injected into mice one hour before sacrificing, and EDU incorporation was measured by EDU cell proliferation kit. […]

EPCR [3] = assay: Growth factor injection after PNX: EPCR / HIF2α in lung ECs; type: in vivo, mouse
Method: Mouse lung regeneration and repair models. To test mouse lung alveolar regeneration and repair, models of left lung PNX (Reference 19) and lung injury (Reference 7) were adapted. Mice were anesthetized with a cocktail of ketamine (100 mg/kg) and xylazine (10 mg/kg). PNX was carried out when left lung lobe was resected with a suture tied around the hilum. PCECs were purified from 20 months (designated as old) and 3 months old (designated as young) mice after PNX, and total RNA was isolated and subjected to transcriptome analysis as described. Intratracheal injection of 2 U/kg bleomycin was employed to induce lung injury. To block EPCR signaling, mice were intraperitoneally injected with EPCR neutralizing antibody 1560 at 1.5 mg/kg (Reference 46) after PNX and Bleo injection. Young Nrp1^iΔEC/iΔEC Hif2a^iΔEC/iΔEC, and control mice were also administered with 20 μg/kg mouse P1GF or same molar amounts of HGF and PDGF-BB (Peprotech) after PNX and PH. In addition, repeated intratracheal hydrochloric acid injection models were employed to induce lung injury (Reference 76). Orotracheal instillation was performed in anesthetized mice, and 20 μl of an iso-osmolar solution of 0.1 M hydrochloric acid (pH 1.0) was instilled. […] After recovery, mice were transferred to ventilated cages with access to food and water. […] At the described time points, pulmonary function and oxygen tension in arterial blood of treated mice were measured as previously described (Reference 7). To measure cell proliferation, 100 mg/kg 5-ethynyl-2′-deoxyuridine (EDU) was i.p. injected into mice one hour before sacrificing, and EDU incorporation was measured by EDU cell proliferation kit. Mice were i.p. supplemented with 1 ml PBS after all surgery procedures.
Injection of growth factor and treatment of HDAC and DNMT inhibitors. Three months old (young) mice were subjected to PNX, PH or kidney I/R and injected with 20 μg/kg P1GF or equal molar amounts of PDGF-BB, HGF, VEGF165, or TGFβ1 every three days. 3-mon Nrp1^+/+, Nrp1^iΔEC/iΔEC, or Hif2a^iΔEC/iΔEC mice were also treated with P1GF. To test the regulation of P1GF and NRP1, old mice were treated with 10 mg/kg HDAC inhibitor VPA, 0.5 mg/kg DNMT1 inhibitor azacitidine (AZA), or combinatorial treatment of VPA and AZA (VPA+AZA). Expression of EPCR and NRP1 proteins in isolated lung, liver, and kidney ECs were tested by immunoblot, and P1GF amounts in homogenized organs was tested by ELISA.

[4] = 20 ng/ml TIMP1, co-treatment with 10 ng/ml TGF-β1

CCCC(CCC)C(=O)O [VPA, valproic acid]
expression of NRP1 in lung ECs (NRP1): reduced

TIMP1: recombinant tissue inhibitor of metalloproteinases 1 incubated with fibroblast cells
phosphorylation of Smad2 ([1]; 20 ng/ml TIMP1): augmented
smooth muscle cell actin (SMA) protein expression ([1]; 20 ng/ml TIMP1): augmented
phosphorylation of Smad2 [1, 4]: further enhanced
smooth muscle cell actin (SMA) protein expression [1, 4]: further enhanced

c1cc(CN2CCCNCCNCCCNCC2)ccc1CN1CCCNCCNCCCNCC1 [AMD3100]
TIMP1 upregulation in the macrophages of old organs (TIMP1): attenuated

B1: activated protein C (protein, UniProt P04070 200-461, looked up)
Vitamin K-dependent protein C …: DTEDQEDQVDPRLIDGKMTRRGDSPWQVVLLDSKKKLACGAVLIHPSWVLTAAHCMDESKKLLVRLGEYDLRRWEKWELDLDIKEVFVHPNYSKSTTDNDIALLHLAQPATLSQTIVPICLPDSGLAERELNQAGQETLVTGWGYHSSREKEAKRNRTFVLNFIKIPVVPHNECSEVMSNMVSENMLCAGILGDRQDACEGDSGGPMVASFHGTWFLVGLVSWGEGCGLLHNYGVYTKVSRYLDWIHGHIRDKEAPQKSWAP
modifications: Vitamin K-dependent protein C heavy chain activated two-chain form
EPCR expression in liver ECs (mouse liver fibrosis): enhanced
HIF2A induction in liver ECs (mouse liver fibrosis): suppressed
EPCR expression in kidney ECs (kidney fibrosis): enhanced
HIF2A induction in kidney ECs (kidney fibrosis): suppressed

B2: P1GF: placenta growth factor, NRP1 ligand, injected into mice (protein, UniProt P49763 19-221, looked up)
Placenta growth factor: LPAVPPQQWALSAGNGSSEVEVVPFQEVWGRSYCRALERLVDVVSEYPSEVEHMFSPSCVSLLRCTGCCGDENLHCVPVETANVTMQLLKIRSGDRPSYVELTFSQHVRCECRHSPGRQSPDMPGDFRADAPSFLPPRRSLPMLFRMEWGCALTGSQSAVWPSSPVPEEIPRMHPGRNGKKQQRKPLREKMKPERCGDAVPRR
EPCR upregulation in liver ECs (EPCR [2]): did not prohibit
effect of P1GF on EPCR / HIF2a (EPCR [3]; Nrp1 iΔEC/iΔEC mice after PNX): abrogated
EPCR in lung ECs (EPCR [3]; young Hif2a iΔEC/iΔEC mice after PNX): did not suppress
HIF2a in lung ECs (EPCR [3]; young mice after PNX, 20 μg/kg): enhanced
EPCR expression in lung ECs (EPCR [3]; young mice after PNX, 20 μg/kg or equal molar amounts): suppressed
